The target in the experiment is T1, recombinant α catalytic subunit of rabbit protein phosphatase 1 (Ppp1ca) (rabbit, UniProt P62139 1-330).
T1 construct: α catalytic subunit of protein phosphatase 1 (Ppp1ca), rabbit, recombinant; also called PP1A; Protein Phosphatase 1 Catalytic Subunit, α-isoform; source: bought: MilliporeSigma, P7937 (recombinant)
Put plainly: pull-down; GST-(N) NCC or GST alone on glutathione-agarose beads with 2–10 μg recombinant phosphatase; 12- to 18-hour incubation in PBS with 0.5 mM TCEP at 4°C; bound protein detected by Western blotting. Conditions: both partners purified. Background: Immunoblotting shows a protein as a band on a membrane.

T1 sequence (P62139 whole entry, canonical isoform): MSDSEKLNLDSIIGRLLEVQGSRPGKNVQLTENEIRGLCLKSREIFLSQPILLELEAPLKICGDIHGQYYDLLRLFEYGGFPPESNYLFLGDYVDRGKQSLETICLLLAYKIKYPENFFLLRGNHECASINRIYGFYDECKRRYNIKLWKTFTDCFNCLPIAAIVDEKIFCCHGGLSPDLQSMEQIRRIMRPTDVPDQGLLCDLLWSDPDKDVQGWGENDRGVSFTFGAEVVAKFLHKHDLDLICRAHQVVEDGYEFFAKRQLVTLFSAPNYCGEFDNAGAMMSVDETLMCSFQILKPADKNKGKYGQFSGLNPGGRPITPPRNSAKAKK

B1: GST fusion protein of the cytoplasmic amino terminus of rat NCC (amino acids 1-133) (domain or fragment, UniProt P55018 1-133, looked up)
chain: MAELPVTEMPGDALCSGRFTISTLLGGDEPPPAACDNSQPSHLTHGSTLYLRTFGYNTIDVVPAYEHYANSALPGEPRKVRPTLADLHSFLKQEGSHLHALAFDGRPGHELTDGLVEDETGANSEKSPGEPVR
notes: thiazide-sensitive sodium chloride cotransporter NCC (SLC12A3), rat, NP_062218, cytoplasmic amino terminus, amino acids 1-133; cloned into pGEX4T1; also called GST-NCC-(N); GST-(N) NCC; source: E. coli C43 (DE3), recovered by glutathione chromatography, kept on beads
Turning to B1, the binding result is reported as “binds”.
